Tests used:
[1] = biological target: rHDL-apoA-I (reconstituted discoidal HDL particles carrying apolipoprotein A-I); experiment: SPR (BIAcore 3000), biotinylated rHDL-apoA-I on streptavidin chip, PON1 injected, 25° C.
[2] = biological target: rHDL-apoA-I (reconstituted discoidal HDL particles carrying apolipoprotein A-I); experiment: SPR, rHDL-apoA-I immobilised; reference Δ20-rePON1-192Q

wt Δ20-rePON1-192K, sequence (P27170 other isoform, or with tags, fused parts or gaps mutant): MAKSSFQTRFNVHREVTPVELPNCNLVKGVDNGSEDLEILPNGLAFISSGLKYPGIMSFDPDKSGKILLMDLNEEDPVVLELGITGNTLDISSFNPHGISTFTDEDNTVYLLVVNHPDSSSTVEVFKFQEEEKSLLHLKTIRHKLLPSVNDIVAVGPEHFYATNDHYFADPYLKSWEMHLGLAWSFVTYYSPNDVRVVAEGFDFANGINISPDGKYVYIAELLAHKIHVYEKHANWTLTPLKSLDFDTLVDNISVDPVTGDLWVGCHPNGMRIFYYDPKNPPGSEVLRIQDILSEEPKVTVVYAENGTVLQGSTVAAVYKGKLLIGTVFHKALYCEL
Δ20-rePON1-192Q, sequence (P27170 other isoform, or with tags, fused parts or gaps mutant): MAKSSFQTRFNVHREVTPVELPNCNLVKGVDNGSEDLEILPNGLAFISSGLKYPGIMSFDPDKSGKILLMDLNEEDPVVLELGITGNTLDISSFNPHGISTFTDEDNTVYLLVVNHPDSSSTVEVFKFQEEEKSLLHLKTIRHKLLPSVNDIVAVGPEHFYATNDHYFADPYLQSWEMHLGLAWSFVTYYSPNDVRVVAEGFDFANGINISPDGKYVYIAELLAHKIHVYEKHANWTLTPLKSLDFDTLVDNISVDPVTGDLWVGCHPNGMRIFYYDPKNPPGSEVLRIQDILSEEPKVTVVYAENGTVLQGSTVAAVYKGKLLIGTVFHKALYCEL
Δ20-rePON1-192R, sequence (P27170 other isoform, or with tags, fused parts or gaps mutant): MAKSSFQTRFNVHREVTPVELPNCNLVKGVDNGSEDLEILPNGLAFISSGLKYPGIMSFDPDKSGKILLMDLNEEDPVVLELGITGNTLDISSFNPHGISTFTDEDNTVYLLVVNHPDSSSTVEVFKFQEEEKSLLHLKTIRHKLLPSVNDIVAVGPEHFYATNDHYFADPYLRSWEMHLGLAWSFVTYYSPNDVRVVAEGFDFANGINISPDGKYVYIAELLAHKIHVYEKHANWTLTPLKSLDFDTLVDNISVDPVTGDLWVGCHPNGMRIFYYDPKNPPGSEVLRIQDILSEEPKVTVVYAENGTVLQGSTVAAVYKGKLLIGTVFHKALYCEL

Substance	Kd [1] [nM]	koff [1] [s⁻¹]	kon [1] [M⁻¹ s⁻¹]	fold higher HDL binding affinity than the Q isozyme [2] [fold]	fold higher HDL affinity than the Q isozyme [2] [fold]
Δ20-rePON1-192Q (from UniProt P27170 21-355) (enzyme)	300	0.042	140000		
wt Δ20-rePON1-192K (from UniProt P27170 21-355) (enzyme)	100	0.02	200000	3	
Δ20-rePON1-192R (from UniProt P27170 21-355) (enzyme)	110	0.029	260000		3

From patent US20100028924A1, “Method Of Diagnosing Pon1-Hdl Associated Lipid Disorders” (Rappaport Family Institute Research in the Medical Sciences, priority 2006, published 2010)
